# Experimental data published in IntAct's records for PubMed 35512704.
# B1: Speckle-type POZ protein (Homo sapiens), O43791 (parent)
# chain: MSRVPSPPPPAEMSSGPVAESWCYTQIKVVKFSYMWTINNFSFCREEMGEVIKSSTFSSGANDKLKWCLRVNPKGLDEESKDYLSLYLLLVSCPKSEVRAKFKFSILNAKGEETKAMESQRAYRFVQGKDWGFKKFIRRDFLLDEANGLLPDDKLTLFCEVSVVQDSVNISGQNTMNMVKVPECRLADELGGLWENSRFTDCCLCVAGQEFQAHKAILAARSPVFSAMFEHEMEESKKNRVEINDVEPEVFKEMMCFIYTGKAPNLDKMADDLLAAADKYALERLKVMCEDALCSNLSVENAAEILILADLHSADQLKTQAVDFINYHASDVLETSGWKSMVVSHPHLVAEAYRSLASAQCPFLGPPRKRLKQS
# partner: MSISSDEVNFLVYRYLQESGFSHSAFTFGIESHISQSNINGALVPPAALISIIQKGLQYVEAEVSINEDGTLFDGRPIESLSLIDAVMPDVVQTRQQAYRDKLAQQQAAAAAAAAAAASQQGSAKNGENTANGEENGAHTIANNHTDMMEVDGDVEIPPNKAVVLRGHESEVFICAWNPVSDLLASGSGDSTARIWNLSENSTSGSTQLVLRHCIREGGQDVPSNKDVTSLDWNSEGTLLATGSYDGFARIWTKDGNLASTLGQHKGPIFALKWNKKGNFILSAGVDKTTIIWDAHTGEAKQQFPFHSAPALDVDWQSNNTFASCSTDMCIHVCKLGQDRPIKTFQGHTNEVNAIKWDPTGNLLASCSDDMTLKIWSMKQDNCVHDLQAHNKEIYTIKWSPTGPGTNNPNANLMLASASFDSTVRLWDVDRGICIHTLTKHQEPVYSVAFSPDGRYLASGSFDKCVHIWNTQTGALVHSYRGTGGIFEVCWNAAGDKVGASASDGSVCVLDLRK
# B2: Speckle-type POZ protein (Homo sapiens), O43791 (parent)
# chain: B1 chain
# partner: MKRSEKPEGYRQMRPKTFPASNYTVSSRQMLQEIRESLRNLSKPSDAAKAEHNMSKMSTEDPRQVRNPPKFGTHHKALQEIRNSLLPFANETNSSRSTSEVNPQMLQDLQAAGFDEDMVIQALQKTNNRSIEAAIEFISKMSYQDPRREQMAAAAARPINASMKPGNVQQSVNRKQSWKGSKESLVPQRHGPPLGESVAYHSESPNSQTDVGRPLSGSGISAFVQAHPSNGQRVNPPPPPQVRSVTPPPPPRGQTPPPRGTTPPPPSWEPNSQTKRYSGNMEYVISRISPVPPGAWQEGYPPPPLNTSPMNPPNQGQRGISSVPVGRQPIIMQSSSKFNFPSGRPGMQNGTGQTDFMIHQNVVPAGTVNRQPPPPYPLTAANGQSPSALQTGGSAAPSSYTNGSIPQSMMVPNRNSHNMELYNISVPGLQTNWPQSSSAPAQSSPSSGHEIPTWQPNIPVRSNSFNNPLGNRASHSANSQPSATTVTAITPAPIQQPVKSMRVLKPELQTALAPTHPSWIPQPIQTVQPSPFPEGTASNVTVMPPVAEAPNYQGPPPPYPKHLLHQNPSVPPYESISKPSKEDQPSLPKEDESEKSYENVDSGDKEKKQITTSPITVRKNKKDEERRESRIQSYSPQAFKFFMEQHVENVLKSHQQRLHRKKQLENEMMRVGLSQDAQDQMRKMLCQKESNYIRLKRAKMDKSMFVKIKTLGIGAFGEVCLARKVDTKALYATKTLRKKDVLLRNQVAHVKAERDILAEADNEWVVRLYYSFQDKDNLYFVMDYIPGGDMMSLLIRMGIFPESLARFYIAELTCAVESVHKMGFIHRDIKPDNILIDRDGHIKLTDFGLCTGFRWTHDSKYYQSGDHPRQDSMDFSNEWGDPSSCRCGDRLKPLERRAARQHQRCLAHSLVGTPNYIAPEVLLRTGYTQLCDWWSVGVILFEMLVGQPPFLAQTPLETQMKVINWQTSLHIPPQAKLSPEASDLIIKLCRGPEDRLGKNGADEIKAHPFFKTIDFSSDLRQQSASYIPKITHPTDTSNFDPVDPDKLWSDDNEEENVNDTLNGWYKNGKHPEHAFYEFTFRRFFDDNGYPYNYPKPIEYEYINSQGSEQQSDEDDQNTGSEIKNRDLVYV
# B3: Speckle-type POZ protein (Homo sapiens), O43791 (parent)
# chain: B1 chain
# partner: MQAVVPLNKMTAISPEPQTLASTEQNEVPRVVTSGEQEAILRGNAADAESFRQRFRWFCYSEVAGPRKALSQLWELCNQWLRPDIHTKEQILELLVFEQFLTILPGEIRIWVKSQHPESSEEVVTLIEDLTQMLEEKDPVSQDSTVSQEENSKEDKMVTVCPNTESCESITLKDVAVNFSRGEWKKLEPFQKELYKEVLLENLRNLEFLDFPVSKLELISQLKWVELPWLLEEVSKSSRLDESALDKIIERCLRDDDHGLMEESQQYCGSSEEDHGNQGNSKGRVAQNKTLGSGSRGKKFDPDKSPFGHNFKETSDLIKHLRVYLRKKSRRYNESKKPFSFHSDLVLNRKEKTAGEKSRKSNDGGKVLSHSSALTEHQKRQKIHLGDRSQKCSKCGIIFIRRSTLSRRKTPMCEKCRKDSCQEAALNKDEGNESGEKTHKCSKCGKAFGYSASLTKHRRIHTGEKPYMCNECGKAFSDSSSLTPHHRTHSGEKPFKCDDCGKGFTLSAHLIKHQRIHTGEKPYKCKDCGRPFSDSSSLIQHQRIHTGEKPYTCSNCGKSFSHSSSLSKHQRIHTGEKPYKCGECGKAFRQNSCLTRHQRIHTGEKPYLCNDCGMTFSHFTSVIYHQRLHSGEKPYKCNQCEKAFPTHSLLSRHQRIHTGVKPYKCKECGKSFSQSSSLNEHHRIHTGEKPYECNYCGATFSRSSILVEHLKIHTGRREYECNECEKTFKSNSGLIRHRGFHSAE
# B4: Speckle-type POZ protein (Homo sapiens), O43791 (parent)
# chain: B1 chain
# partner: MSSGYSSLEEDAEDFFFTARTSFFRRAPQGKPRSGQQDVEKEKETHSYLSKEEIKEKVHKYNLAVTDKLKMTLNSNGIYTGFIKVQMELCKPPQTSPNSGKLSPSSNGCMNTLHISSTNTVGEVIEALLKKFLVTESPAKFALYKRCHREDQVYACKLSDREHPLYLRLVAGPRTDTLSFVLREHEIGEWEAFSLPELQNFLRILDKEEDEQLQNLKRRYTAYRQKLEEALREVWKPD
# Variants of: B1
# Settings: with tbl1r_human TBL1XR1, Q9BZK7
row,Variant,effect of a mutation on the interaction
1,F133L,with no effect

# Variants of: B1
# Settings: with tbl1r_human TBL1XR1, Q9BZK7
# Remark: another data set of the same source
row,Variant,effect of a mutation on the interaction
1,F133V,with no effect

# Variants of: B1
# Settings: with tbl1r_human TBL1XR1, Q9BZK7
# Remark: another data set of the same source
row,Variant,effect of a mutation on the interaction
1,Y87C,with no effect

# Variants of: B1
# Settings: with tbl1r_human TBL1XR1, Q9BZK7
# Remark: another data set of the same source
row,Variant,effect of a mutation on the interaction
1,F102C,with no effect

# Variants of: B2
# Settings: with lats1_human LATS1, O95835
row,Variant,effect of a mutation on the interaction
1,F133L,with no effect

# Variants of: B2
# Settings: with lats1_human LATS1, O95835
# Remark: another data set of the same source
row,Variant,effect of a mutation on the interaction
1,F133V,with no effect

# Variants of: B2
# Settings: with lats1_human LATS1, O95835
# Remark: another data set of the same source
row,Variant,effect of a mutation on the interaction
1,Y87C,with no effect

# Variants of: B3
# Settings: with zn483_human ZNF483, Q8TF39
row,Variant,effect of a mutation on the interaction
1,Y87C,with no effect

# Variants of: B4
# Settings: with rasf3_human RASSF3, Q86WH2
row,Variant,effect of a mutation on the interaction
1,F133L,with no effect

# Variants of: B4
# Settings: with rasf3_human RASSF3, Q86WH2
# Remark: another data set of the same source
row,Variant,effect of a mutation on the interaction
1,F133V,with no effect

# Variants of: B4
# Settings: with rasf3_human RASSF3, Q86WH2
# Remark: another data set of the same source
row,Variant,effect of a mutation on the interaction
1,Y87C,with no effect
